Consider one sequence from US5147794.

The data set relates to KasI restriction endonuclease (recombinant, cell extract) (Kluyvera ascorbata). Kind of data set: cleavage_in_vitro. Conditions: lambda DNA, 37 C, 1 h; nearly 10^6.

“GGCGCC (double strand) [KasI recognition site (lambda DNA)]”: the activity (units per gram of cells) stood at 1e+06.
